# Source: patent publication US20060269977A1, “Recombinant antibody recognizing dioxin and gene encoding the antibody” (priority 2003, published 2006)
# B1: Dx3150: monoclonal antibody recognizing 2,3,4,7,8-PeCDF, produced by hybridoma Dx3150r1; H/L variable regions SEQ ID Nos. 7 and 8 (antibody, V domains shown)
# VH: DVQLQESGPGLVKPSQSLSLTCSVTGYSITSGFYWNWIRQFPGNKLEWMGYISYDGYNNYNPFLKNRVSITRDTSENQFFLKLHSVTTEDTATYYCVSYGSRRGVTYWGQGTTLTVSS
# VL: QAVVTQESALTTSPGETVTLTCRSSTGAVTTSNYANWVQEKPDHLFTGLIGNTNNRAPGVPARFSGSLIGDKAALTITGAQTEDEAIYFCALWYNTHLVFGGGTRLTVLG
# modifications: Polypeptide of H-chain variable region of monoclonal antibody Dx 3150; Polypeptide of L-chain variable region of monoclonal antibody Dx 3150
# B2: H-chain variable region polypeptide: H-chain variable region of Dx3860, polypeptide having the amino acid sequence of SEQ ID No. 5, from vector pET22Δ-Dx3860H (antibody, V domains shown)
# VH: EVKLVESGGGLVKPGGSLKLSCAASGFTFSSYAMSWVRQTPEKRLEWVASFSNGGITYYPDSVKGRFTISRDNARNILYLQMTSLRSEDTAIYYCARGYGPAYWGQGTLVTVSA
# modifications: Polypeptide of H-chain variable region of monoclonal antibody Dx 3860
# B3: Dx3860: monoclonal antibody recognizing 2,3,4,7,8-PeCDF, produced by hybridoma Dx3860r1; H/L variable regions SEQ ID Nos. 5 and 6 (antibody, V domains shown)
# VH: EVKLVESGGGLVKPGGSLKLSCAASGFTFSSYAMSWVRQTPEKRLEWVASFSNGGITYYPDSVKGRFTISRDNARNILYLQMTSLRSEDTAIYYCARGYGPAYWGQGTLVTVSA
# VL: QAVVTQESALTTSPGETVTLTCRSSTGAVTTLNYANWVQEKPDHLFTGLIGNTNNRAPGVPARFSGSLIGDKAALTITGAQTEDEAIYFCALWYSNHLVFGGGTKLTVLG
# modifications: Polypeptide of H-chain variable region of monoclonal antibody Dx 3860; Polypeptide of L-chain variable region of monoclonal antibody Dx 3860
# B4: anti-2,3,4,7,8-PeCDF scFv: scFv: H-chain variable region of Dx3860, linker, L-chain variable region of Dx3860 (SEQ ID No. 56), expressed in E. coli Origami B (DE3) (protein)
# scFv: EVKLVESGGGLVKPGGSLKLSCAASGFTFSSYAMSWVRQTPEKRLEWVASFSNGGITYYPDSVKGRFTISRDNARNILYLQMTSLRSEDTAIYYCARGYGPAYWGQGTLVTVSSGGGGSGGGGSGGGGSQAVVTQESALTTSPGETVTLTCRSSTGAVTTLNYANWVQEKPDHLFTGLIGNTNNRAPGVPARFSGSLIGDKAALTITGAQTEDEAIYFCALWYSNHLVFGGGTKLTVLG
# modifications: scFv fragment Dx3860HL
# How the values were obtained:
# Format in all cases: binding
# [1] = Hybridoma supernatant EIA: antibody titer to immobilized 2,3,4,7,8-PeCDF derivative-BSA conjugate and its inhibition by 2,3,4,7,8-PeCDF; details: titer inhibited by 2,3,4,7,8-PeCDF dissolved in 20% DMSO
# Procedure: After 7 to 10 days from the onset of the cultivation, a portion of the supernatant of the culture in the wells in which proliferation of hybridomas was observed was taken and added to a microtiter plate to which the 2,3,4,7,8-PeCDF derivative-BSA conjugate was immobilized. After allowing to react at room temperature for one hour, the plate was washed with PBS(−) containing 0.05% Tween 20. A peroxidase-labeled anti-mouse IgG antibody (recognizing γ-chain) (KPL Co.) was then added to the plate and allowed to react at room temperature for one hour, and the plate was then washed in the same manner. A substrate solution (TMB substrate, KPL Co.) was added to the plate, the peroxidase activity on the plate was measured, and the antibody titer in the supernatant of the culture was determined.
# [2] = EIA reactivity of H-chain variable region polypeptide fractions to immobilized 2,3,4,7,8-PeCDF-BSA conjugate; details: fractions eluted from nickel-chelate column; EIA on immobilized 2,3,4,7,8-PeCDF-BSA conjugate; FIG. 10
# Procedure: Escherichia coli Origami B (DE3) (Novagen Co.) was transformed using expression vector pET22Δ-Dx3860H which was prepared by removing the sequence between restriction enzyme sites Bam HI and Not I containing the L-chain variable region of expression vector pET22Δ-Dx3860HL. Using the transformant, the expression of the H-chain variable region polypeptide (polypeptide having the amino acid sequence as shown in SEQ ID No. 5) was carried out in the same manner as in the case of the scFv.
# The H-chain variable region polypeptide obtained as an inclusion body was reconstituted on a nickel-chelate column as described above, and the product was then isolated and purified using imidazole. Protein concentrations of the fractions eluted from the chelate column were determined by measuring absorbance (280 nm), and the reactivity to an immobilized 2,3,4,7,8-PeCDF-BSA conjugate was also investigated by an EIA method. As a result, it was recognized that the fractions of the H-chain variable region polypeptide have an anti-2,3,4,7,8-PeCDF activity as shown in FIG. 10.
# [3] = Indirect competitive immunoassay using anti-2,3,4,7,8-PeCDF scFv; details: 2,3,4,7,8-PeCDF solution in 20% DMSO; immobilized 2,3,4,7,8-PeCDF derivative-BSA conjugate; FIG. 9
# Procedure: Determination of 2,3,4,7,8-PeCDF by an Indirect Competitive Immunoassay Using Anti-2,3,4,7,8-PeCDF scFv
# One μg/ml of 2,3,4,7,8-PeCDF derivative-BSA conjugate (50 μl) was added to a microtiter plate, and allowed to react at room temperature for one hour. The wells of the microtiter plate were washed with PBS(−) containing 0.05% Tween 20. A solution of Block Ace (Yukijirushi Co.) was then added to the wells, and the wells were blocked by allowing them to stand at room temperature for two hours. After the microtiter plate was washed, a solution (25 μl) of 2,3,4,7,8-PeCDF prepared in various concentrations (a solution in 20% DMSO) and a solution (25 μl) of anti-2,3,4,7,8-PeCDF scFv were added to the wells, and allowed to react at room temperature for 0.5 to 1 hour. After the microtiter plate was again washed, a solution of anti-tetra-His antibody (Qiagen Co.) 2000-fold diluted was added to the wells, and allowed to react at room temperature for one hour. Subsequently, a solution (50 μl) of peroxidase-labeled anti-mouse IgG (recognizing γ-chain) antibody (KPL Co.) 3000-fold diluted was added to the wells, and allowed to react at room temperature for one hour. […] The reaction was terminated by adding 1 M H3PO4 (50 μl), and OD450 (control: OD600) was measured using a plate reader (Labsystems Co.).
Molecule,"recognition of 2,3,4,7,8-PeCDF by monoclonal antibody [1]",other results
B1,"recognizing 2,3,4,7,8-PeCDF",–
B2,–,"binding activity to 2,3,4,7,8-PeCDF (anti-2,3,4,7,8-PeCDF activity) [2]: has a binding activity to 2,3,4,7,8-PeCDF"
B3,"recognizing 2,3,4,7,8-PeCDF",–
B4,–,"determination of 2,3,4,7,8-PeCDF by indirect competitive immunoassay [3]: can be determined in a highly sensitive manner"
